Measurements: US20050008616A1, “Recombinant human interferon-beta-1b polypeptides” (Schering Aktiengesellschaft, priority 2003, published 2005)
Where “and” joins values, the source holds several entries; their conditions need not be identical. Identical values can stand only once.

Tests used:
[1] = target: T1, fibroblast-derived native IFN-β (Homo sapiens, UniProt P01574); settings: partially purified native interferon; cited from earlier work
T1 construct: host or cells: human fibroblasts (natural producer)
T1 sequence (P01574 22-187): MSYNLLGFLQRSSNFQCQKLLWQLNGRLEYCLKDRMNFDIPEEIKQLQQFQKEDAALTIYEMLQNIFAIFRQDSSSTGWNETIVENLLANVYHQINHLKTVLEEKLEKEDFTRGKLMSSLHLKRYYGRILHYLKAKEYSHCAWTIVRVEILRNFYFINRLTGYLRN

[2] = target: T2, Soybean Agglutinun (soybean, UniProt P05046 33-285, biotinylated (sites not given)); assay: dot blot, probed with biotinylated lectin
T2 construct: Bought biotinylated lectin; also called SBA
T2 sequence (P05046 33-285 limits assumed): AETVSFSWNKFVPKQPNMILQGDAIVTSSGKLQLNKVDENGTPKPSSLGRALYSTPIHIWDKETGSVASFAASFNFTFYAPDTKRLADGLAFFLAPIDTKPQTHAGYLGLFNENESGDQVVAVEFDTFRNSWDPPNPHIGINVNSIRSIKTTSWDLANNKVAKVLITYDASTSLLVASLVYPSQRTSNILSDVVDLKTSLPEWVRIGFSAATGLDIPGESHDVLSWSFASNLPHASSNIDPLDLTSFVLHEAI
Description: Finally, IFN-β-1b lot A was tested for binding to biotinylated lectins from Vector Laboratories.

[3] = IFN-β specific activity, assay not stated
[4] = system: EAE; settings: rodent EAE; cited from earlier work
[5] = system: MxA gene; assay: MxA gene induction assay (ICLA); type: cell-based, human
Text: Based on the specific induction of the MxA gene by type I IFNs in cultured human cells (Von Wussow, P. et al. (1990) Eur. J. Immunol. 20:2015-2019; and Simon, A. et al. (1991) J. Interferon Res. 11:215-219), an immunochemiluminometric (“ICLA”) assay was developed by Files, J. G. et al. (1998) J. Interferon Res. 18:1019-1024. The ICLA assay, which is based on the procedure of Oh, S. K. et al. (1994) J. Immunol. Meth. 176:79-91, detects MXa protein in cell lysates using two non-competing anti-MxA monoclonal antibodies, one of which is conjugated with acridinium ester, which is detected in a luminometer. The MxA gene induction ICLA assay procedure used herein is described in detail in Files, J. G. et al. (1998) supra.

[6] = system: human amnionic cell line WISH infected with VSV; type: cell-based, vesicular stomatitis virus; settings: WISH cells infected with VSV, viral plaque reduction

CC(=O)N[C@H]1[C@H]([C@H](O)[C@H](O)CO)OC(O)(C(=O)O)C[C@@H]1O (stereo partly shown) [sialic acid, N-acetylneuraminic acid]
effect on antiviral activity of native IFN-β [1]: not

(N-acetylneuraminosyl)galactosylglucosylceramide [GM3]
effect on antiviral activity of native IFN-β [1]: abolished

B1: peak IFN-β-1b (fraction 5) from the Con A Sepharose column (ligand)
chain: MSYNLLGFLQRSSNFQSQKLLWQLNGRLEYCLKDRMNFDIPEEIKQLQQFQKEDAALTIYEMLQNIFAIFRQDSSSTGWNETIVENLLANVYHQINHLKTVLEEKLEKEDFTRGKLMSSLHLKRYYGRILHYLKAKEYSHCAWTIVRVEILRNFYFINRLTGYLRN
notes: Same polypeptide as IFN-β-1b lot A, after Con A Sepharose chromatography removed most of the non-covalently attached carbohydrate; The note on Met1 for m1 applies here too; also called IFN-β-1b lot A further purified by Con A Sepharose column chromatography
binding result [2]: no binding

B2: IFN-β-1b: recombinant human IFN-β expressed in E. coli with Cys17 to Ser17 substitution, 165 amino acids, not glycosylated (SEQ ID NO: 2) (protein, listed as Homo sapiens)
chain: B1 chain
specific activity [3]: 2 to 3×10^7 IU/mg and ~3×10^7 IU/mg | in vivo efficacy in EAE models [4]: shows in vivo efficacy

B3: IFN-β-1aSER17: IFN-β-1a in which Cys17 is replaced by Ser17, expressed in CHO cells, purified by affinity chromatography (protein, UniProt P01574 22-187, looked up, variant C17S)
Interferon beta: B1 chain
decrease in specific activity ([5]; PNGase F-mediated deglycosylation, non-reducing or reducing conditions, FIG. 2B): 30-35% | effect on specific activity of overnight incubation alone ([5]; overnight (18 hours) incubation, FIG. 2B): not adversely affected | specific activity ([5]; product label specific activity of reconstituted IFN-β-1b/Betaseron® as IFN standard, FIG. 2A): 1.3 to 2.4×10^8 IU/mg | reduction in specific activity ([5]; reduction in the presence of SDS followed by spontaneous reoxidation, FIG. 2B): ~20%

B4: peak IFN-β-1b (fraction 5): IFN-β-1b lot A further purified by Con A Sepharose column chromatography, peak fraction 5, carbohydrates largely removed (protein, UniProt P01574 22-187, looked up, variant C17S)
Interferon beta: B1 chain
modifications: interferon beta-1b; deglycosylated fraction
notes: IFN-β-1b lot A further purified by Con A Sepharose column chromatography, peak fraction 5, carbohydrates largely removed
specific activity [6]: 3.6×10^7 IU/mg
